We go through 2 substances from patent EP2105446A2.

Assay [1] has as its target factor present in the activated CD3+ selected human T-cell conditioned media (human). The assay is described as follows: cell-based or functional assay.
Assay [2] addresses MPL-zalpha11 polypeptide chimera (MPL extracellular and TM domain fused to the zalpha11 intracellular signaling domain), expressed on BaF3 cells (human) (UniProt P40238). Briefly: cell-based or functional assay.

Turning to “zalpha11-Fc4 (mutant) soluble receptor (zalpha11 extracellular domain fused C-terminally to human IgG/Fc) (from UniProt Q9HBE5 20-237) (Fc fusion)”, in assay [1], the inhibition of BaF3/Zalpha11 cell growth (Alamar Blue), concentration giving complete inhibition is 10 µg/mL and the titration of soluble receptor, lowest concentration giving complete inhibition of BaF3/Zalpha11 growth was determined as 1.5 µg/mL.

On to thrombopoietin (TPO) (ligand), for which, in assay [2], the proliferation of BaF3/MPL-zalpha11 cells (Alamar Blue) (fold over background) amounted to 10.
